Article PMC9654039, “FUS Microphase Separation: Regulation by Nucleic Acid Polymers and DNA Repair Proteins”

B1: dsDNA (30 bp, one-nucleotide gap) (dsDNA)
DNA 1: GGGTTGGTTTGCG
DNA 2: ATTCACAGTTCTCCGC
DNA 3: GCGGAGAACTGTGAATGCGCAAACCAACCC
modifications: 5'-phosphate on S4 (downstream strand); 3'-OH on S3

Experiments:
[1] = target: T1, FUS∆LCD (UniProt P35637 164-526); assay: fluorescence titration (Cy3-protein intensity); details: apparent Kd; concentration as rNMP (nucleotides), not molecules; Hill fit n 3.07; Buffer, salt, pH and temperature of the fluorescence titrations are not given in the material; concentrations are in nucleotide units. Poly(ADP-ribose) (Kd,app …)
T1 sequence (P35637 164-526): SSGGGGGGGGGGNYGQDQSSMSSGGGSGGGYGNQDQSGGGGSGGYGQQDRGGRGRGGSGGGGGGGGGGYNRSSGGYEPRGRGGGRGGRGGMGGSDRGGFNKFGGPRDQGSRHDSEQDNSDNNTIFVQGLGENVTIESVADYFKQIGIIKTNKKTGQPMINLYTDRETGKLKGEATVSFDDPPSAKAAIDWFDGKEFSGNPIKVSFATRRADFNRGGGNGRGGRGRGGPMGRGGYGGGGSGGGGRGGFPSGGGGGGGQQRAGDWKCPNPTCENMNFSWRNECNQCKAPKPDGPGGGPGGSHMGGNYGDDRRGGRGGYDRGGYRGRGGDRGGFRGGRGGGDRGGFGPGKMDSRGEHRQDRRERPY

[2] = target: T1, FUS∆LCD; assay: fluorescence titration (Cy3-protein intensity); apparent Kd; concentration as dNMP (nucleotides), not molecules; Hill fit n 1.12; Buffer, salt, pH and temperature of the fluorescence titrations are not given in the material; concentrations are in nucleotide units. Poly(ADP-ribose) (Kd,app); details: protein: recombinant; tags: Cy3 label (sulfo-cyanine 3 NHS ester); blunt; one-nucleotide gap between strands 1 and 2, opposite G of strand 3

Molecule	Kd [1] [nM]	Kd [2] [nM]
RNA (~3000 nt luciferase mRNA)	183	–
B1	–	2560 ± 159
